Target: T1, EGFR protein (UniProt P00533 25-645)
T1 construct: EGFR; source: bought: R&D Systems (1095-ER)
Experiment: pull-down; Fc fusion protein and its partner incubated in lysis buffer overnight at 4 °C; Protein A/G magnetic beads; both orientations (N-EGFR-Fc with Ephrin A1; Ephrin A1-Fc with EGFR protein)
Settings: both partners purified

B1: Ephrin A1-Fc protein (Fc fusion, UniProt P20827 19-182, looked up)
chain: DRHTVFWNSSNPKFRNEDYTIHVQLNDYVDIICPHYEDHSVADAAMEQYILYLVEHEEYQLCQPQSKDQVRWQCNRPSAKHGPEKLSEKFQRFTPFTLGKEFKEGHSYYYISKPIHQHEDRCLRLKVTVSGKITHSPQAHDNPQEKRLAADDPEVRVLHSIGHS
notes: Ephrin A1; source: bought: R&D Systems (6417-A1)
binding result: binds

From paper PMC11876641, “Ephrin A1 functions as a ligand of EGFR to promote EMT and metastasis in gastric cancer” (The EMBO Journal, 2025)
